The values that follow come from paper PMC4351136 (The FEBS journal, 2015).

The experiment addresses T1, domain V of human β2GPI (human, UniProt P02749 263-345).
T1 sequence (looked up): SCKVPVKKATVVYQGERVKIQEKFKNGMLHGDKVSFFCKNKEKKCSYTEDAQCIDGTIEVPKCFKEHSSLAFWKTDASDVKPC
Nature of the experiment: ITC. Background: Isothermal titration calorimetry measures the heat released or taken up as one component is titrated into another.

B1: Asn36/Asp mutant of mouse A1 (domain or fragment)
chain: not shown
As to B1, binding was put at a Kd of 14 µM, the dH is -4.3 ± 0.2 kcal/mol and the “stoichiometry N” value was 1.04 ± 0.03.

By Kd is commonly meant the constant that tells how readily two partners part at equilibrium. Read a low Kd as higher affinity. A word on the stoichiometry N: it is the number of molecules, sites or subunits per partner or assembly.
